The chains are these.
B1: Pistol ribozyme (parent)
chain: GGGUCGUUGUUCCAUAAUCGCGUGGAUAUGGCACGCAAGUUUCUACCGGGCACCGUAAAUGUCCGACUGGAGCCGUUCGGGCGGCUAUAAACAGACCUCAGGCCCGAAGCGUGGCGGCACCUGCCGCCGGUGGUAAAAAAGAUCGGAAGAGCACACGUCU

The data set covers variants of B1. Kind of data set: aptazyme ON/OFF ratio, guanine; higher = stronger switching; co-transcriptional cleavage with and without guanine.
Consider GGGUCGAGGCAUUAUAAUCGCGUGGAUAUGGCACGCAAGUUUCUACCGGGCACCGUAAAUGUCCGACUGGAGCCGUUCGGGCGGCUAUAAACAGACCUCAGGCCCGAAGCGUGGCGGCACCUGCCGCCGGUGGUAAAAAAGAUCGGAAGAGCACACGUCU, for which the “aptazyme ON/OFF ratio” value is 1.18.

For the variant GGGUCGAGGCAUGAUAAUCGCGUGGAUAUGGCACGCAAGUUUCUACCGGGCACCGUAAAUGUCCGACUGGAGCCGUUCGGGCGGCUAUAAACAGACCUCAGGCCCGAAGCGUGGCGGCACCUGCCGCCGGUGGUAAAAAAGAUCGGAAGAGCACACGUCU, the “aptazyme ON/OFF ratio” value turned out to be 0.954. For GGGUCGAGGCAUAAUAAUCGCGUGGAUAUGGCACGCAAGUUUCUACCGGGCACCGUAAAUGUCCGACUGGAGCCGUUCGGGCGGCUAUAAACAGACCUCAGGCCCGAAGCGUGGCGGCACCUGCCGCCGGUGGUAAAAAAGAUCGGAAGAGCACACGUCU, the “aptazyme ON/OFF ratio” value amounted to 1.35.

For the variant GGGUCGAGGCAGGAUAAUCGCGUGGAUAUGGCACGCAAGUUUCUACCGGGCACCGUAAAUGUCCGACUGGAGCCGUUCGGGCGGCUAUAAACAGACCUCAGGCCCGAAGCGUGGCGGCACCUGCCGCCGGUGGUAAAAAAGAUCGGAAGAGCACACGUCU, the “aptazyme ON/OFF ratio” value came to 1.28. For GGGUCGAGGCAGAAUAAUCGCGUGGAUAUGGCACGCAAGUUUCUACCGGGCACCGUAAAUGUCCGACUGGAGCCGUUCGGGCGGCUAUAAACAGACCUCAGGCCCGAAGCGUGGCGGCACCUGCCGCCGGUGGUAAAAAAGAUCGGAAGAGCACACGUCU, the “aptazyme ON/OFF ratio” value turned out to be 1.22.

Turning to GGGUCGAGGCAGUAUAAUCGCGUGGAUAUGGCACGCAAGUUUCUACCGGGCACCGUAAAUGUCCGACUGGAGCCGUUCGGGCGGCUAUAAACAGACCUCAGGCCCGAAGCGUGGCGGCACCUGCCGCCGGUGGUAAAAAAGAUCGGAAGAGCACACGUCU, the “aptazyme ON/OFF ratio” value came out at 1.31. The value for GGGUCGAGGCACUAUAAUCGCGUGGAUAUGGCACGCAAGUUUCUACCGGGCACCGUAAAUGUCCGACUGGAGCCGUUCGGGCGGCUAUAAACAGACCUCAGGCCCGAAGCGUGGCGGCACCUGCCGCCGGUGGUAAAAAAGAUCGGAAGAGCACACGUCU was 1.21. In the case of GGGUCGAGGCACGAUAAUCGCGUGGAUAUGGCACGCAAGUUUCUACCGGGCACCGUAAAUGUCCGACUGGAGCCGUUCGGGCGGCUAUAAACAGACCUCAGGCCCGAAGCGUGGCGGCACCUGCCGCCGGUGGUAAAAAAGAUCGGAAGAGCACACGUCU, the “aptazyme ON/OFF ratio” value was found to be 1.21.

Turning to GGGUCGAGGCACAAUAAUCGCGUGGAUAUGGCACGCAAGUUUCUACCGGGCACCGUAAAUGUCCGACUGGAGCCGUUCGGGCGGCUAUAAACAGACCUCAGGCCCGAAGCGUGGCGGCACCUGCCGCCGGUGGUAAAAAAGAUCGGAAGAGCACACGUCU, the “aptazyme ON/OFF ratio” value amounted to 1.45.

Take GGGUCGAGGCAAUAUAAUCGCGUGGAUAUGGCACGCAAGUUUCUACCGGGCACCGUAAAUGUCCGACUGGAGCCGUUCGGGCGGCUAUAAACAGACCUCAGGCCCGAAGCGUGGCGGCACCUGCCGCCGGUGGUAAAAAAGAUCGGAAGAGCACACGUCU: the “aptazyme ON/OFF ratio” value turned out to be 1.37. As to GGGUCGAGGCAGCAUAAUCGCGUGGAUAUGGCACGCAAGUUUCUACCGGGCACCGUAAAUGUCCGACUGGAGCCGUUCGGGCGGCUAUAAACAGACCUCAGGCCCGAAGCGUGGCGGCACCUGCCGCCGGUGGUAAAAAAGAUCGGAAGAGCACACGUCU, the “aptazyme ON/OFF ratio” value is 1.48. In the case of GGGUCGAGGCAUCAUAAUCGCGUGGAUAUGGCACGCAAGUUUCUACCGGGCACCGUAAAUGUCCGACUGGAGCCGUUCGGGCGGCUAUAAACAGACCUCAGGCCCGAAGCGUGGCGGCACCUGCCGCCGGUGGUAAAAAAGAUCGGAAGAGCACACGUCU, the “aptazyme ON/OFF ratio” value is 1.27. The figure for GGGUCGAGGCCCCAUAAUCGCGUGGAUAUGGCACGCAAGUUUCUACCGGGCACCGUAAAUGUCCGACUGGAGCCGUUCGGGCGGCUAUAAACAGACCUCAGGCCCGAAGCGUGGCGGCACCUGCCGCCGGUGGUAAAAAAGAUCGGAAGAGCACACGUCU is 2.69; for GGGUCGAGGCCAGAUAAUCGCGUGGAUAUGGCACGCAAGUUUCUACCGGGCACCGUAAAUGUCCGACUGGAGCCGUUCGGGCGGCUAUAAACAGACCUCAGGCCCGAAGCGUGGCGGCACCUGCCGCCGGUGGUAAAAAAGAUCGGAAGAGCACACGUCU it is 1.3. The value for GGGUCGAGGCCAAAUAAUCGCGUGGAUAUGGCACGCAAGUUUCUACCGGGCACCGUAAAUGUCCGACUGGAGCCGUUCGGGCGGCUAUAAACAGACCUCAGGCCCGAAGCGUGGCGGCACCUGCCGCCGGUGGUAAAAAAGAUCGGAAGAGCACACGUCU was 1.61; that for GGGUCGAGGCCAUAUAAUCGCGUGGAUAUGGCACGCAAGUUUCUACCGGGCACCGUAAAUGUCCGACUGGAGCCGUUCGGGCGGCUAUAAACAGACCUCAGGCCCGAAGCGUGGCGGCACCUGCCGCCGGUGGUAAAAAAGAUCGGAAGAGCACACGUCU was 1.49; that for GGGUCGAGGCCACAUAAUCGCGUGGAUAUGGCACGCAAGUUUCUACCGGGCACCGUAAAUGUCCGACUGGAGCCGUUCGGGCGGCUAUAAACAGACCUCAGGCCCGAAGCGUGGCGGCACCUGCCGCCGGUGGUAAAAAAGAUCGGAAGAGCACACGUCU was 1.62.

Regarding GGGUCGAGGCCGCAUAAUCGCGUGGAUAUGGCACGCAAGUUUCUACCGGGCACCGUAAAUGUCCGACUGGAGCCGUUCGGGCGGCUAUAAACAGACCUCAGGCCCGAAGCGUGGCGGCACCUGCCGCCGGUGGUAAAAAAGAUCGGAAGAGCACACGUCU, the “aptazyme ON/OFF ratio” value amounted to 1.42.
